Measured values from the supplement of paper PMC10065799, “High-throughput profiling of sequence recognition by tyrosine kinases and SH2 domains using bacterial peptide display” (eLife, 2023).

Key:
SHP2-C SH2 = assay: SH2 binding enrichment of the phosphorylated peptide, bacterial display (enrichment ratio); higher = better substrate or ligand; peptides without Tyr show the background
Grb2 SH2 = Grb2 SH2 (UniProt P62993); assay: as above
c-Src SH2 = assay: as above
Jak2 = Jak2 (UniProt O60674); assay: phosphorylation enrichment, bacterial display (enrichment ratio); higher = better substrate or ligand; peptides without Tyr show the background
Fyn = Fyn (UniProt P06241); assay: as above
Hck = Hck (UniProt P08631); assay: as above
AncSZ = assay: as above
EPHB2 = EPHB2 (UniProt P29323); assay: as above
Fes = Fes (UniProt P07332); assay: as above
FGFR1 = FGFR1 (UniProt P11362); assay: as above
c-Src = assay: as above
FGFR3 = FGFR3 (UniProt P22607); assay: as above
Fer (mouse) = assay: as above
EPHB1 = EPHB1 (UniProt P54762); assay: as above
MERTK = MERTK (UniProt Q12866); assay: as above
c-Abl (mouse) = assay: as above
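For SH2 binding enrichment of the phosphorylated peptide, bacterial display in this document: peptide library displayed on the E. coli surface as eCPX fusions, selected cells deep-sequenced, score is each peptide's frequency after selection divided by its frequency in the input.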
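For phosphorylation enrichment, bacterial display in this document: 11-residue human phosphosite peptides and single-mutation variants displayed on the E. coli surface, counted by deep sequencing, each peptide's frequency after selection divided by its frequency in the unselected input library; frequency after pTyr selection over input frequency; kinase dosed for 20-30% of maximal phosphorylation in three min.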

Sequence of Grb2 SH2 (P62993 whole entry, looked up): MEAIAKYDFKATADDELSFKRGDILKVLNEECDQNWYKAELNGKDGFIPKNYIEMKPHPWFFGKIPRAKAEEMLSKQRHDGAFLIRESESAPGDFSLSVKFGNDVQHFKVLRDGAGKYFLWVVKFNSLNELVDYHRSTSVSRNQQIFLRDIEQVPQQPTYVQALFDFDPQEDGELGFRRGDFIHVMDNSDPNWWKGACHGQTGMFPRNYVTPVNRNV
Sequence of Hck (P08631 whole entry, looked up): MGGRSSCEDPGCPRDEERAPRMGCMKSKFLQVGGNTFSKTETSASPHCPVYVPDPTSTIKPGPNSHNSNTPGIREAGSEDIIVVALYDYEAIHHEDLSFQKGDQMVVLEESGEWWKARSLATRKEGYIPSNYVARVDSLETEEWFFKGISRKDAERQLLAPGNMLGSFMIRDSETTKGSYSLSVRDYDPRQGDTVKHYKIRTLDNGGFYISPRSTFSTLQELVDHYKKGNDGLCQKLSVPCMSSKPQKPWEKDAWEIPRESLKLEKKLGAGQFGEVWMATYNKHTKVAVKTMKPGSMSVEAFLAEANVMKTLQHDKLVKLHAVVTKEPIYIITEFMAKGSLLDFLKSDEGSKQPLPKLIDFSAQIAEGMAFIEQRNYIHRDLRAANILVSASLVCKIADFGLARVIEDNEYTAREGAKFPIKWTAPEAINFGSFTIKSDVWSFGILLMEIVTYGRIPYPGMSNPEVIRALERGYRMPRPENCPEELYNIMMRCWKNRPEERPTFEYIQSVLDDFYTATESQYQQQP
Sequence of FGFR1 (P11362 whole entry, looked up): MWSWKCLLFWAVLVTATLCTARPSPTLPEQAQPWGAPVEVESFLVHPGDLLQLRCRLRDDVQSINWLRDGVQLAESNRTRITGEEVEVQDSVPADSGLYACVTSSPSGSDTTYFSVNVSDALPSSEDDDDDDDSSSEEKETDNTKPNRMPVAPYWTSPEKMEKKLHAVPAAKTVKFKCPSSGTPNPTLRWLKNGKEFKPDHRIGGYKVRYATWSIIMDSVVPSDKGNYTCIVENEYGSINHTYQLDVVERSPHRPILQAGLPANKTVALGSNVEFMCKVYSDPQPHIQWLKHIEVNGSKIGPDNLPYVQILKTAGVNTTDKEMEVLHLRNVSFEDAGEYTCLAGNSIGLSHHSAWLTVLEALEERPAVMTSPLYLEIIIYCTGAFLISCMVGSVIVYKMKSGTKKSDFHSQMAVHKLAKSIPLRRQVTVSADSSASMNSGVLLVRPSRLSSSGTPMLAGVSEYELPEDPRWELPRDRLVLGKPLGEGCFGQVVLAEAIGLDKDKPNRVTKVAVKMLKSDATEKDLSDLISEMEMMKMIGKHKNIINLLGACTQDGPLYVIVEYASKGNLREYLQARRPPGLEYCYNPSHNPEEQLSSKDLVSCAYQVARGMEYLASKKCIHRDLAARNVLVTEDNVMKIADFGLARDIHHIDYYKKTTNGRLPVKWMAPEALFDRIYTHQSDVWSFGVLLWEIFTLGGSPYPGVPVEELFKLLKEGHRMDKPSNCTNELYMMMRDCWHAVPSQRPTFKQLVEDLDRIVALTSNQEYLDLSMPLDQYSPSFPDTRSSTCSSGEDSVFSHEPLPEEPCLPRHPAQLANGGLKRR
Sequence of Jak2 (O60674 whole entry, looked up): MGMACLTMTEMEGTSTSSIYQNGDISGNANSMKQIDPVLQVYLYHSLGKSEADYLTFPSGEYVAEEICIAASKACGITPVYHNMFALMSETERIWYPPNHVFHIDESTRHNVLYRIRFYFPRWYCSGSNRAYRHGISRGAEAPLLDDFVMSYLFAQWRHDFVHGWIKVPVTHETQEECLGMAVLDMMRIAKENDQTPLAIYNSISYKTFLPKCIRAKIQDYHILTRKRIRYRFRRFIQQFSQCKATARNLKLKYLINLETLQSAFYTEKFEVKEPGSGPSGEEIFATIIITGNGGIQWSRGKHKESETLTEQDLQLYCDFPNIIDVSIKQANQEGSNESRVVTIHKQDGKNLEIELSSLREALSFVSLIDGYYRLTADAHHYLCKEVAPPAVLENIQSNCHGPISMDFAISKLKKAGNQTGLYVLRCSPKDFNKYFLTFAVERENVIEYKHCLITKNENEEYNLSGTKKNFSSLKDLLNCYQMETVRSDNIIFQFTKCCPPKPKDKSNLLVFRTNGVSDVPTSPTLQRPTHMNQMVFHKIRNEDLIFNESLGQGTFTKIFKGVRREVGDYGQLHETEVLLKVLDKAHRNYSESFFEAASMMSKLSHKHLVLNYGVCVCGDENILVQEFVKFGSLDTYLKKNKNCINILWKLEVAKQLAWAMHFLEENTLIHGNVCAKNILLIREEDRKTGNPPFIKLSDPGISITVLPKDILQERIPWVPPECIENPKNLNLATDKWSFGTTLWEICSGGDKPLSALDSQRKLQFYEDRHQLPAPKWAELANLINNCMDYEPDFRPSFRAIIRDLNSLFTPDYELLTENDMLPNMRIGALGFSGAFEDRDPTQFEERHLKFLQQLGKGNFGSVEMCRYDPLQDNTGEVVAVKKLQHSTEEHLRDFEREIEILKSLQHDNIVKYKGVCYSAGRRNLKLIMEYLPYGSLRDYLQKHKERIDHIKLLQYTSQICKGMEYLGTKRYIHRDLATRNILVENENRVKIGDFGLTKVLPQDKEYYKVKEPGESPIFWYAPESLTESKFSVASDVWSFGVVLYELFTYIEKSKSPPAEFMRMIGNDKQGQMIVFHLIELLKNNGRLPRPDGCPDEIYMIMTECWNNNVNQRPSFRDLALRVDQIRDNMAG
Sequence of FGFR3 (P22607 whole entry, looked up): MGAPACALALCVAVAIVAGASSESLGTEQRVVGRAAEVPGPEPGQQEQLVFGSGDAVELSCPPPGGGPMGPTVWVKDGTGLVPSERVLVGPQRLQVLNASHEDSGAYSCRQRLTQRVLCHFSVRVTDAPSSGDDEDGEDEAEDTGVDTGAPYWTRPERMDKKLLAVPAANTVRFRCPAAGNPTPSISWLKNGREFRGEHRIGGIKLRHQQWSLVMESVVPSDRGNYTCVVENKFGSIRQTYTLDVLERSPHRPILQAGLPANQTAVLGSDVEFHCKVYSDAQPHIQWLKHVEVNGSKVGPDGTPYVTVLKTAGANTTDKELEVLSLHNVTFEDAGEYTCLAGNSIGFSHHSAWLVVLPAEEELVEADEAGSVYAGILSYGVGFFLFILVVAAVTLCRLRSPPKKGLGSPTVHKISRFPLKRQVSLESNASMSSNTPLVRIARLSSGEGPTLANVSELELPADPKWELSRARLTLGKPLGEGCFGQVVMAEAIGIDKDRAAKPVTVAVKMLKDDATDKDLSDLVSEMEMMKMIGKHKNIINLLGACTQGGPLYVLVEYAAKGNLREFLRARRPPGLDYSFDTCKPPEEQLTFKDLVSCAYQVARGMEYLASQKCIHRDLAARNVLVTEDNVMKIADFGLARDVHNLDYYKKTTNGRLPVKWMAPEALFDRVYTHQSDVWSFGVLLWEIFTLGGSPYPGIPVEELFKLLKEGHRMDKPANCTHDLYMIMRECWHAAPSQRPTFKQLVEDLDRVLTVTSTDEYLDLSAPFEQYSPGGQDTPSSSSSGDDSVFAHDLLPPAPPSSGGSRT
Sequence of Fes (P07332 whole entry, looked up): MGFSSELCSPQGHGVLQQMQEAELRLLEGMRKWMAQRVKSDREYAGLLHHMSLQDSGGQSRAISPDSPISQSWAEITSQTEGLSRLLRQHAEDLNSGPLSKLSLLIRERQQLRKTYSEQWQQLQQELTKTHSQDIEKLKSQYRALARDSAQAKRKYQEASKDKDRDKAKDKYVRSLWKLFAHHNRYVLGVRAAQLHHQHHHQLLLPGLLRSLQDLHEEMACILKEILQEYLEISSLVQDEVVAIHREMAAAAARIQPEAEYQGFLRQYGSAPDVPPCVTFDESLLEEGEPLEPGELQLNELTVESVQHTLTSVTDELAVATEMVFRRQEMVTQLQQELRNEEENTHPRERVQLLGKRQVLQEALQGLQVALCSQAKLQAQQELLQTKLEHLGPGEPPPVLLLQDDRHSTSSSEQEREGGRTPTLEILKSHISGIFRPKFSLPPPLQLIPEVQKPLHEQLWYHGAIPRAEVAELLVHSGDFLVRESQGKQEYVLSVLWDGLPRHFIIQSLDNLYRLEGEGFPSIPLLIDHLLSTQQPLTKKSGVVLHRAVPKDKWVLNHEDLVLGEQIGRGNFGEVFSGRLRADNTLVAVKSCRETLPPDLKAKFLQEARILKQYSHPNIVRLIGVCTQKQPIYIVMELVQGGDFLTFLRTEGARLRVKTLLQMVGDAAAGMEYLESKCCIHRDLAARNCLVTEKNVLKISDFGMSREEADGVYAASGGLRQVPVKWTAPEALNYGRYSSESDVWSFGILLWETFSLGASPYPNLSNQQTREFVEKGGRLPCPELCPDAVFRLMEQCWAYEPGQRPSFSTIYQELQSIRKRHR
Sequence of Fyn (P06241 whole entry, looked up): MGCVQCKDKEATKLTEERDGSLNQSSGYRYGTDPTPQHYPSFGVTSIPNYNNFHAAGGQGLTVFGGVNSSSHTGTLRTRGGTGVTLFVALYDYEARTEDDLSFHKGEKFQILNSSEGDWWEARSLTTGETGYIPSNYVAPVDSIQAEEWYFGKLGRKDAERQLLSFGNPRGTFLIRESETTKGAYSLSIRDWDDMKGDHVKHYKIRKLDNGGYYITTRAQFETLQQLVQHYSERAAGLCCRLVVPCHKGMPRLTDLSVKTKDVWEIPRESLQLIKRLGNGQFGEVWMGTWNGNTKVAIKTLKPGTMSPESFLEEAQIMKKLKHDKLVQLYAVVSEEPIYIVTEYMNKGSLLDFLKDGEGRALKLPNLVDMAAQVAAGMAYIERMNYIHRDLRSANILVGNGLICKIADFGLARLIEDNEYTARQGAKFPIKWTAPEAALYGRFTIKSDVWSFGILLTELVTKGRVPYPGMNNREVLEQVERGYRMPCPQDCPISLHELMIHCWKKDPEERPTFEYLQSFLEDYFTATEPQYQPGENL

Row | Sequence | SH2 binding enrichment (SHP2-C SH2) | SH2 binding enrichment (Grb2 SH2) | SH2 binding enrichment (c-Src SH2) | phosphorylation enrichment (Jak2) | phosphorylation enrichment (Fyn) | phosphorylation enrichment (Hck) | phosphorylation enrichment (AncSZ) | phosphorylation enrichment (EPHB2) | phosphorylation enrichment (Fes) | phosphorylation enrichment (FGFR1) | phosphorylation enrichment (c-Src) | phosphorylation enrichment (FGFR3) | phosphorylation enrichment (Fer (mouse)) | phosphorylation enrichment (EPHB1) | phosphorylation enrichment (MERTK) | phosphorylation enrichment (c-Abl (mouse))
1 | ALAAPYVLYPS [CEFIP_Y1332_G1337S] | 0.804 | 1.03 | 0.762 | 0.856 | 0.697 | 0.628 | 0.786 | 0.473 | 0.811 | 2.02 | 6.33 | 1.28 | 0.581 | 0.652 | 0.721 | 0.583
2 | MLEVSYVDRNS [F10_Y384_P383S] | 0.609 | 0.67 | 0.355 | 0.876 | 0.375 | 0.437 | 0.651 | 0.528 | 0.758 | 0.441 | 0.466 | 0.519 | 0.439 | 0.48 | 0.37 | 0.554
3 | KRLDGYVLEGR [IGSF9_Y656] | 0.518 | 0.791 | 0.856 | 0.426 | 0.441 | 0.447 | 0.585 | 0.417 | 0.67 | 0.43 | 0.321 | 0.44 | 0.323 | 0.356 | 0.385 | 0.496
4 | MANFMYKAGPS [MAML2_Y515_YF] | 0.838 | 1.03 | 0.593 | 0.739 | 0.383 | 0.39 | 0.947 | 0.525 | 0.68 | 0.378 | 0.41 | 0.44 | 0.386 | 0.367 | 0.339 | 0.534
5 | QRAADYYSQQM [GBP6_Y333] | 0.608 | 0.887 | 0.56 | 0.728 | 1.42 | 0.611 | 1.29 | 1.14 | 1.53 | 2.32 | 0.524 | 1.75 | 0.579 | 0.933 | 0.813 | 0.591
6 | FESPRYLQVHI [FANCA_Y488] | 0.781 | 0.912 | 0.648 | 0.867 | 0.408 | 0.564 | 0.928 | 0.461 | 1.04 | 0.534 | 0.411 | 0.61 | 0.676 | 0.782 | 0.495 | 0.949
7 | AFLGEYIPTVF [RAC2_Y32_P29L] | 1.01 | 0.922 | 0.658 | 1.49 | 0.593 | 0.516 | 1.31 | 0.499 | 1.43 | 0.826 | 0.664 | 0.967 | 0.568 | 0.733 | 0.638 | 1.1
8 | LNAGAYSKVVE [PPT1_Y172_Q177E] | 1.08 | 0.758 | 2.03 | 0.541 | 0.306 | 0.411 | 0.447 | 0.416 | 0.664 | 0.436 | 0.523 | 0.378 | 0.551 | 0.431 | 0.448 | 0.46
9 | GISDEYHVIRH [GCDH_Y398] | 0.606 | 0.827 | 0.941 | 0.633 | 0.64 | 0.962 | 0.917 | 0.475 | 0.69 | 4.48 | 0.664 | 2.26 | 0.405 | 0.458 | 0.339 | 0.569
10 | GREYIYVDPMQ [PDGFRA_Y574_H570R] | 0.718 | 0.95 | 0.53 | 1.17 | 1.73 | 2.05 | 3.12 | 8.24 | 0.801 | 12.7 | 1.86 | 8.94 | 1.21 | 6.9 | 4.27 | 5.21
11 | DAGTDYVGISC [FREM2_Y2061_R2066C] | 0.898 | 0.991 | 0.658 | 0.732 | 0.522 | 0.478 | 1.31 | 0.619 | 0.961 | 1.05 | 0.546 | 0.959 | 0.558 | 0.578 | 0.4 | 0.688
12 | ENPAKYDDIKK [GAPDH_Y255_K251N] | 0.888 | 0.702 | 1.39 | 0.829 | 0.506 | 0.412 | 0.915 | 0.582 | 1.04 | 0.519 | 0.485 | 0.69 | 0.453 | 0.608 | 0.437 | 0.579
13 | FQLPFYNMVPS [BMPR1A_Y458_YF] | 0.652 | 0.952 | 1.97 | 0.666 | 1.05 | 1.07 | 0.788 | 0.773 | 0.811 | 1.21 | 1.06 | 0.936 | 1.45 | 0.65 | 2.69 | 0.582
14 | VNKIFHPDFIV [LIG3_Y768_Y768H_YF] | 0.744 | 0.873 | 0.462 | 0.695 | 0.447 | 0.39 | 0.793 | 0.454 | 0.871 | 0.419 | 0.497 | 0.547 | 0.397 | 0.487 | 0.432 | 0.6
15 | AGVDRYSLGTS [C5orf42_Y1451_P1446A] | 0.615 | 0.79 | 0.45 | 0.498 | 0.361 | 0.455 | 0.59 | 0.366 | 0.599 | 0.398 | 0.391 | 0.51 | 0.398 | 0.463 | 0.394 | 0.388
16 | ENFDDYMKDVG [FABP4_Y20_E23D] | 0.729 | 0.832 | 0.428 | 1.24 | 0.564 | 0.554 | 1.17 | 0.663 | 1.12 | 0.546 | 0.43 | 0.764 | 0.443 | 0.635 | 0.52 | 1.13
